{
  "source": "patent US20240425590A1",
  "about": "(VIBRANT PHARMA, published 2024)",
  "data": [
    {"target": "T1, human carcinoembryonic antigen-related cell adhesion molecule 5 (human, UniProt P06731 35-702)", "T1 sequence (looked up)": "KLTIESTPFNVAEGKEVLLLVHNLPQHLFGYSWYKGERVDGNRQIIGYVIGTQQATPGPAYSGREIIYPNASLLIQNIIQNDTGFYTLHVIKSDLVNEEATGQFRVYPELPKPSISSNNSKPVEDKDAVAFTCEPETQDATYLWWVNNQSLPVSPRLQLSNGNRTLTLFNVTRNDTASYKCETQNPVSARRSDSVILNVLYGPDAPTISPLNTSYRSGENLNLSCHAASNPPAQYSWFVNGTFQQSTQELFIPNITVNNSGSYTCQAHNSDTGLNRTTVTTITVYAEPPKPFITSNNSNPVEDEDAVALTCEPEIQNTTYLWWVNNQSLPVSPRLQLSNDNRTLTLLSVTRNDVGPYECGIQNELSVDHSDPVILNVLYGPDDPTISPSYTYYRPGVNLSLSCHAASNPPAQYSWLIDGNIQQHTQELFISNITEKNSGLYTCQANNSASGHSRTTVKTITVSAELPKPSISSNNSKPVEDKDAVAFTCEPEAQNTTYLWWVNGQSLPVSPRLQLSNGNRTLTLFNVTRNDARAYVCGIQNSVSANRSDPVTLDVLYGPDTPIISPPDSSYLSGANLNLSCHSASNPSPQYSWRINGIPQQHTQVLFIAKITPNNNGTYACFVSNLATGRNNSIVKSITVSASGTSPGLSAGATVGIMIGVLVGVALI", "experiment": "cell-based or functional assay", "units": {"EC50 (pM) of TCB-mediated killing of LS-174T target cells co-cultured with human PBMCs (viability read-out)": "pM"}, "values": [
      {"binder": "CEA-4N1-TA1+4O1 (bispecific antibody, human IgG4 S228P, F234A L235A) chain 1: EVQLVESGGGFVQAGESLTLSCTSSTLTFTPYRMAWYRQAPGKQRDLVADISSGDGRTTNYADFAKGRFTISRDNIKNTVFLRMTNLKPEDTAVYYCNTFVSFVGIARSWGQGTQVTVSSESKYGPPCPPCPAPEAAGGPSVFLFPPKPKDTLMISRTPEVTCVVVDVSQEDPEVQFNWYVDGVEVHNAKTKPREEQFNSTYRVVSVLTVLHQDWLNGKEYKCKVSNKGLPSSIEKTISKAKGQPREPQVYTLPPCQEEMTKNQVSLWCLVKGFYPSDIAVEWESNGQPENNYKTTPPVLDSDGSFFLYSRLTVDKSRWQEGNVFSCSVMHEALHNHYTQKSLSLSLGGGGSGGGGSEVKLLESGGGLVQPKGSLKLSCAASGFTFNTYAMNWVRQAPGKGLEWVARIRSKYNNYATYYADSVKDRFTISRDDSQSILYLQMNNLKTEDTAMYYCVRHGNFGNSYVSWFAYWGQGTLVTVSSGGGGSGGGGSGGGGSQAVVTQESALTTSPGETVTLTCRSSTGAVTTSNYANWVQEKPDHLFTGLIGGTNKRAPGVPARFSGSLIGDKAALTITGAQTEDEAIYFCALWYSNLWVFGGGTKVEIKRT chain 2: ESKYGPPCPPCPAPEAAGGPSVFLFPPKPKDTLMISRTPEVTCVVVDVSQEDPEVQFNWYVDGVEVHNAKTKPREEQFNSTYRVVSVLTVLHQDWLNGKEYKCKVSNKGLPSSIEKTISKAKGQPREPQVCTLPPSQEEMTKNQVSLSCAVKGFYPSDIAVEWESNGQPENNYKTTPPVLDSDGSFFLVSRLTVDKSRWQEGNVFSCSVMHEALHNRFTQKSLSLSL", "EC50 (pM) of TCB-mediated killing of LS-174T target cells co-cultured with human PBMCs (viability read-out)": 0.4},
      {"binder": "TA1-4N1+CEA-4O1 (bispecific antibody, human IgG4 S228P, F234A L235A) chain 1: EVKLLESGGGLVQPKGSLKLSCAASGFTFNTYAMNWVRQAPGKGLEWVARIRSKYNNYATYYADSVKDRFTISRDDSQSILYLQMNNLKTEDTAMYYCVRHGNFGNSYVSWFAYWGQGTLVTVSSGGGGSGGGGSGGGGSQAVVTQESALTTSPGETVTLTCRSSTGAVTTSNYANWVQEKPDHLFTGLIGGTNKRAPGVPARFSGSLIGDKAALTITGAQTEDEAIYFCALWYSNLWVFGGGTKVEIKRTESKYGPPCPPCPAPEAAGGPSVFLFPPKPKDTLMISRTPEVTCVVVDVSQEDPEVQFNWYVDGVEVHNAKTKPREEQFNSTYRVVSVLTVLHQDWLNGKEYKCKVSNKGLPSSIEKTISKAKGQPREPQVYTLPPCQEEMTKNQVSLWCLVKGFYPSDIAVEWESNGQPENNYKTTPPVLDSDGSFFLYSRLTVDKSRWQEGNVFSCSVMHEALHNHYTQKSLSLSL chain 2: EVQLVESGGGFVQAGESLTLSCTSSTLTFTPYRMAWYRQAPGKQRDLVADISSGDGRTTNYADFAKGRFTISRDNIKNTVFLRMTNLKPEDTAVYYCNTFVSFVGIARSWGQGTQVTVSSESKYGPPCPPCPAPEAAGGPSVFLFPPKPKDTLMISRTPEVTCVVVDVSQEDPEVQFNWYVDGVEVHNAKTKPREEQFNSTYRVVSVLTVLHQDWLNGKEYKCKVSNKGLPSSIEKTISKAKGQPREPQVCTLPPSQEEMTKNQVSLSCAVKGFYPSDIAVEWESNGQPENNYKTTPPVLDSDGSFFLVSRLTVDKSRWQEGNVFSCSVMHEALHNRFTQKSLSLSL", "EC50 (pM) of TCB-mediated killing of LS-174T target cells co-cultured with human PBMCs (viability read-out)": 3.1},
      {"binder": "CEA-4N1+TA1-4O1 (bispecific antibody, human IgG4 S228P, F234A L235A) chain 1: EVQLVESGGGFVQAGESLTLSCTSSTLTFTPYRMAWYRQAPGKQRDLVADISSGDGRTTNYADFAKGRFTISRDNIKNTVFLRMTNLKPEDTAVYYCNTFVSFVGIARSWGQGTQVTVSSESKYGPPCPPCPAPEAAGGPSVFLFPPKPKDTLMISRTPEVTCVVVDVSQEDPEVQFNWYVDGVEVHNAKTKPREEQFNSTYRVVSVLTVLHQDWLNGKEYKCKVSNKGLPSSIEKTISKAKGQPREPQVYTLPPCQEEMTKNQVSLWCLVKGFYPSDIAVEWESNGQPENNYKTTPPVLDSDGSFFLYSRLTVDKSRWQEGNVFSCSVMHEALHNHYTQKSLSLSL chain 2: EVKLLESGGGLVQPKGSLKLSCAASGFTFNTYAMNWVRQAPGKGLEWVARIRSKYNNYATYYADSVKDRFTISRDDSQSILYLQMNNLKTEDTAMYYCVRHGNFGNSYVSWFAYWGQGTLVTVSSGGGGSGGGGSGGGGSQAVVTQESALTTSPGETVTLTCRSSTGAVTTSNYANWVQEKPDHLFTGLIGGTNKRAPGVPARFSGSLIGDKAALTITGAQTEDEAIYFCALWYSNLWVFGGGTKVEIKRTESKYGPPCPPCPAPEAAGGPSVFLFPPKPKDTLMISRTPEVTCVVVDVSQEDPEVQFNWYVDGVEVHNAKTKPREEQFNSTYRVVSVLTVLHQDWLNGKEYKCKVSNKGLPSSIEKTISKAKGQPREPQVCTLPPSQEEMTKNQVSLSCAVKGFYPSDIAVEWESNGQPENNYKTTPPVLDSDGSFFLVSRLTVDKSRWQEGNVFSCSVMHEALHNRFTQKSLSLSL", "EC50 (pM) of TCB-mediated killing of LS-174T target cells co-cultured with human PBMCs (viability read-out)": 0.005},
      {"binder": "4N1-TA1+CEA-4O1 (bispecific antibody, human IgG4 S228P, F234A L235A) chain 1: ESKYGPPCPPCPAPEAAGGPSVFLFPPKPKDTLMISRTPEVTCVVVDVSQEDPEVQFNWYVDGVEVHNAKTKPREEQFNSTYRVVSVLTVLHQDWLNGKEYKCKVSNKGLPSSIEKTISKAKGQPREPQVYTLPPCQEEMTKNQVSLWCLVKGFYPSDIAVEWESNGQPENNYKTTPPVLDSDGSFFLYSRLTVDKSRWQEGNVFSCSVMHEALHNHYTQKSLSLSLGGGGSGGGGSEVKLLESGGGLVQPKGSLKLSCAASGFTFNTYAMNWVRQAPGKGLEWVARIRSKYNNYATYYADSVKDRFTISRDDSQSILYLQMNNLKTEDTAMYYCVRHGNFGNSYVSWFAYWGQGTLVTVSSGGGGSGGGGSGGGGSQAVVTQESALTTSPGETVTLTCRSSTGAVTTSNYANWVQEKPDHLFTGLIGGTNKRAPGVPARFSGSLIGDKAALTITGAQTEDEAIYFCALWYSNLWVFGGGTKVEIKRT chain 2: EVQLVESGGGFVQAGESLTLSCTSSTLTFTPYRMAWYRQAPGKQRDLVADISSGDGRTTNYADFAKGRFTISRDNIKNTVFLRMTNLKPEDTAVYYCNTFVSFVGIARSWGQGTQVTVSSESKYGPPCPPCPAPEAAGGPSVFLFPPKPKDTLMISRTPEVTCVVVDVSQEDPEVQFNWYVDGVEVHNAKTKPREEQFNSTYRVVSVLTVLHQDWLNGKEYKCKVSNKGLPSSIEKTISKAKGQPREPQVCTLPPSQEEMTKNQVSLSCAVKGFYPSDIAVEWESNGQPENNYKTTPPVLDSDGSFFLVSRLTVDKSRWQEGNVFSCSVMHEALHNRFTQKSLSLSL", "EC50 (pM) of TCB-mediated killing of LS-174T target cells co-cultured with human PBMCs (viability read-out)": 6},
      {"binder": "CEA-4N1+4O1-TA1 (bispecific antibody, human IgG4 S228P, F234A L235A) chain 1: EVQLVESGGGFVQAGESLTLSCTSSTLTFTPYRMAWYRQAPGKQRDLVADISSGDGRTTNYADFAKGRFTISRDNIKNTVFLRMTNLKPEDTAVYYCNTFVSFVGIARSWGQGTQVTVSSESKYGPPCPPCPAPEAAGGPSVFLFPPKPKDTLMISRTPEVTCVVVDVSQEDPEVQFNWYVDGVEVHNAKTKPREEQFNSTYRVVSVLTVLHQDWLNGKEYKCKVSNKGLPSSIEKTISKAKGQPREPQVYTLPPCQEEMTKNQVSLWCLVKGFYPSDIAVEWESNGQPENNYKTTPPVLDSDGSFFLYSRLTVDKSRWQEGNVFSCSVMHEALHNHYTQKSLSLSL chain 2: ESKYGPPCPPCPAPEAAGGPSVFLFPPKPKDTLMISRTPEVTCVVVDVSQEDPEVQFNWYVDGVEVHNAKTKPREEQFNSTYRVVSVLTVLHQDWLNGKEYKCKVSNKGLPSSIEKTISKAKGQPREPQVCTLPPSQEEMTKNQVSLSCAVKGFYPSDIAVEWESNGQPENNYKTTPPVLDSDGSFFLVSRLTVDKSRWQEGNVFSCSVMHEALHNRFTQKSLSLSLGGGGSGGGGSEVKLLESGGGLVQPKGSLKLSCAASGFTFNTYAMNWVRQAPGKGLEWVARIRSKYNNYATYYADSVKDRFTISRDDSQSILYLQMNNLKTEDTAMYYCVRHGNFGNSYVSWFAYWGQGTLVTVSSGGGGSGGGGSGGGGSQAVVTQESALTTSPGETVTLTCRSSTGAVTTSNYANWVQEKPDHLFTGLIGGTNKRAPGVPARFSGSLIGDKAALTITGAQTEDEAIYFCALWYSNLWVFGGGTKVEIKRT", "EC50 (pM) of TCB-mediated killing of LS-174T target cells co-cultured with human PBMCs (viability read-out)": 9},
      {"binder": "4N1-TA1+4O1-CEA (bispecific antibody, human IgG4 S228P, F234A L235A) chain 1: ESKYGPPCPPCPAPEAAGGPSVFLFPPKPKDTLMISRTPEVTCVVVDVSQEDPEVQFNWYVDGVEVHNAKTKPREEQFNSTYRVVSVLTVLHQDWLNGKEYKCKVSNKGLPSSIEKTISKAKGQPREPQVYTLPPCQEEMTKNQVSLWCLVKGFYPSDIAVEWESNGQPENNYKTTPPVLDSDGSFFLYSRLTVDKSRWQEGNVFSCSVMHEALHNHYTQKSLSLSLGGGGSGGGGSEVKLLESGGGLVQPKGSLKLSCAASGFTFNTYAMNWVRQAPGKGLEWVARIRSKYNNYATYYADSVKDRFTISRDDSQSILYLQMNNLKTEDTAMYYCVRHGNFGNSYVSWFAYWGQGTLVTVSSGGGGSGGGGSGGGGSQAVVTQESALTTSPGETVTLTCRSSTGAVTTSNYANWVQEKPDHLFTGLIGGTNKRAPGVPARFSGSLIGDKAALTITGAQTEDEAIYFCALWYSNLWVFGGGTKVEIKRT chain 2: ESKYGPPCPPCPAPEAAGGPSVFLFPPKPKDTLMISRTPEVTCVVVDVSQEDPEVQFNWYVDGVEVHNAKTKPREEQFNSTYRVVSVLTVLHQDWLNGKEYKCKVSNKGLPSSIEKTISKAKGQPREPQVCTLPPSQEEMTKNQVSLSCAVKGFYPSDIAVEWESNGQPENNYKTTPPVLDSDGSFFLVSRLTVDKSRWQEGNVFSCSVMHEALHNRFTQKSLSLSLGGGGSGGGGSEVQLVESGGGFVQAGESLTLSCTSSTLTFTPYRMAWYRQAPGKQRDLVADISSGDGRTTNYADFAKGRFTISRDNIKNTVFLRMTNLKPEDTAVYYCNTFVSFVGIARSWGQGTQVTVSS", "EC50 (pM) of TCB-mediated killing of LS-174T target cells co-cultured with human PBMCs (viability read-out)": 6.7}
    ]}
  ]
}
